136 substances from patent US20250011363A1, “OPTIMIZED SHORTENED PEPTIDE THAT BINDS TO ACETYLCHOLINE RECEPTOR, AND USE THEREOF” (SKINMED CO., LTD., priority 2021, published 2025) can be followed below.

This test addresses acetylcholine receptor (Homo sapiens, UniProt P02708). As to the kind of experiment: SPR binding affinity (RU) of optimized 5mer/6mer/7mer peptides, Examples 6-7. As to conditions: SPR, peptides tested at 10 μM. The procedure:
Based on the frequencies of occurrence of the top 7 amino acids from Table 7 in Example 5, 600 peptides comprising these amino acids (top combinations) and those comprising the 13 less frequently occurring amino acids (bottom combinations) were synthesized for each series of 5mer, 6mer-1, and 6mer-2. The binding affinity of each sequence for the acetylcholine receptor was measured using Surface Plasmon Resonance (SPR) analysis method. The peptides were tested at a concentration of 10 μM. Additionally, the average binding affinities of the top and bottom combinations in each series are depicted in FIGS. 5-7.
Representative peptides identified in Example 6, two in each library, including 5mers (73, 311) and 6mers-1 (43, 210) and 6mers-2 (136, 233), were compared with the pre-optimized 6mer, 5mer-ND, and Synake.
Background: Surface plasmon resonance follows binding to a sensor surface in real time, without labels.

Setting [1] is: Resonance Units, 5mer Bottom sequence (bottom combinations).

Chain of acetylcholine receptor (P02708 21-457): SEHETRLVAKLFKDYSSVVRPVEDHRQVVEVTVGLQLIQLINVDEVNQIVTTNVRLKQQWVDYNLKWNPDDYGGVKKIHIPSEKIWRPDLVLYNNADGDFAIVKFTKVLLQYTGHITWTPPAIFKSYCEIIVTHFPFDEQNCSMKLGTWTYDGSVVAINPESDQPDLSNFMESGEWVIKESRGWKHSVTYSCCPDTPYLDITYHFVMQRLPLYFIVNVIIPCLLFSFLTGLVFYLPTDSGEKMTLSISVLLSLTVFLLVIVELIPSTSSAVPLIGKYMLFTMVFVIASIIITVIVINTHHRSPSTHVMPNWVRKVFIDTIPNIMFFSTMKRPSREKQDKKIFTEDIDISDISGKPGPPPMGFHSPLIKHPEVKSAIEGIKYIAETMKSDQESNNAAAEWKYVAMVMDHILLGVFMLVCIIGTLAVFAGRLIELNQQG

As for 5mer-759 (KHKMR), the Binding affinity under setting [1] is reported as 17 Ru.

5mer-760 (RIWAR): the Binding affinity under setting [1] is recorded as 19 Ru.

Turning to 5mer-761 (RMPWR), the Binding affinity under setting [1] worked out at 31 Ru. 5mer-762 (KMPER): under setting [1], the Binding affinity amounted to 21 Ru. The same measure, in the same setting: the result for 5mer-763 (RCHVR) reads 30 Ru; that for 5mer-764 (KTWPK), 19 Ru; that for 5mer-765 (RNEFR), 12 Ru. On to 5mer-766 (RNMEK), for which the Binding affinity under setting [1] is 30 Ru.

On to 5mer-767 (RFHFK), for which the Binding affinity under setting [1] turned out to be 12 Ru. The same measure, in the same setting: the value for 5mer-768 (RDSWR) was 11 Ru; that for 5mer-769 (KTEWK) was 32 Ru; that for 5mer-770 (KKPFR) was 11 Ru.

As to 5mer-771 (RKWVK), under setting [1], the Binding affinity worked out at 24 Ru. As for 5mer-772 (KYWFK), under setting [1], the Binding affinity was found to be 11 Ru. With 5mer-773 (RPNMR), the Binding affinity under setting [1] amounted to 25 Ru.

In the case of 5mer-774 (RTCDR), the Binding affinity under setting [1] is reported as 25 Ru. For 5mer-775 (RHTVK), the Binding affinity under setting [1] is given as 23 Ru. As for 5mer-776 (RCDFR), the Binding affinity under setting [1] is reported as 17 Ru. For the substance 5mer-777 (RYNWK), the Binding affinity under setting [1] is recorded as 28 Ru.

With 5mer-778 (KKDHK), the Binding affinity under setting [1] came to 24 Ru. Consider 5mer-779 (KYPPR), for which the Binding affinity under setting [1] was found to be 21 Ru.

For 5mer-780 (RDSHK), the Binding affinity under setting [1] came out at 27 Ru. The same measure, in the same setting: the value for 5mer-781 (RIDPR) was 28 Ru; that for 5mer-782 (KANAR) was 32 Ru; that for 5mer-783 (KCKVR) was 29 Ru. Still for that read-out and setting: the result for 5mer-784 (RACEK) reads 21 Ru; that for 5mer-785 (KPTIR), 31 Ru.

Regarding 5mer-786 (RFNKK), the Binding affinity under setting [1] is recorded as 29 Ru. On the same count and under the same terms, the result for 5mer-787 (KDNIR) reads 17 Ru; that for 5mer-788 (KYHGK), 16 Ru. On to 5mer-789 (KFWIR), for which the Binding affinity under setting [1] is reported as 12 Ru. Consider 5mer-790 (REAGK), for which the Binding affinity under setting [1] is reported as 33 Ru.

For the substance 5mer-791 (KTKMR), the Binding affinity under setting [1] is on record as 26 Ru. 5mer-792 (RMEKK): the Binding affinity under setting [1] came out at 31 Ru. Still for that read-out and setting: the result for 5mer-793 (KKPHR) reads 19 Ru; that for 5mer-794 (KEAPK), 20 Ru.

5mer-795 (RTKKR): the Binding affinity under setting [1] is listed as 20 Ru. On the same count and under the same terms, the result for 5mer-796 (KNWVR) reads 17 Ru; that for 5mer-797 (KETHK), 15 Ru.

In the case of 5mer-798 (RETMK), the Binding affinity under setting [1] is 13 Ru. In the case of 5mer-799 (KDKPR), the Binding affinity under setting [1] was 24 Ru. In the case of 5mer-800 (KEAPR), under setting [1], the Binding affinity was determined as 29 Ru. Turning to 5mer-801 (KFHGR), the Binding affinity under setting [1] is 20 Ru. Take 5mer-802 (RITVR): the Binding affinity under setting [1] came out at 27 Ru. Regarding 5mer-803 (RFSDR), the Binding affinity under setting [1] was 11 Ru. Still for that read-out and setting: the result for 5mer-804 (RNTIR) reads 20 Ru; that for 5mer-805 (RPTNR), 27 Ru; that for 5mer-806 (RKMFR), 17 Ru. The same measure, in the same setting: the value for 5mer-807 (RKNKK) was 20 Ru.

For 5mer-808 (KFCIR), the Binding affinity under setting [1] amounted to 13 Ru. For 5mer-809 (RKSGK), the Binding affinity under setting [1] is reported as 15 Ru.

In the case of 5mer-810 (KFHKK), the Binding affinity under setting [1] amounted to 11 Ru. Same read-out and setting: the value for 5mer-811 (KMTMR) was 32 Ru. With 5mer-812 (KTEGR), the Binding affinity (5mer Bottom sequence) is 27 Ru. Same read-out and setting: the value for 5mer-813 (RAHVR) was 21 Ru. For 5mer-814 (RITMR), the Binding affinity (5mer Bottom sequence) was 11 Ru. As for 5mer-815 (RKDHR), the Binding affinity (5mer Bottom sequence) was 27 Ru. The same measure, in the same setting: the result for 5mer-816 (RKPIK) reads 26 Ru. Consider 5mer-817 (RHKDR), for which, for the setting “5mer Bottom sequence”, the Binding affinity came to 23 Ru. Consider 5mer-818 (KHWHR), for which the Binding affinity (5mer Bottom sequence) was found to be 12 Ru. Consider 5mer-819 (RNTIK), for which the Binding affinity (5mer Bottom sequence) was 19 Ru. Still for that read-out and setting: the value for 5mer-820 (RIMHK) was 28 Ru. For the substance 5mer-821 (RESDR), the Binding affinity (5mer Bottom sequence) is on record as 12 Ru. On the same count and under the same terms, the result for 5mer-822 (RAKGK) reads 16 Ru.

For 5mer-823 (KECFK), the Binding affinity (5mer Bottom sequence) came out at 26 Ru. For 5mer-824 (KIDMK), the Binding affinity (5mer Bottom sequence) amounted to 13 Ru. 5mer-825 (RDEKK): the Binding affinity (5mer Bottom sequence) came to 14 Ru. 5mer-826 (KCKMK): for the setting “5mer Bottom sequence”, the Binding affinity came out at 11 Ru.

Take 5mer-827 (KKAGR): the Binding affinity (5mer Bottom sequence) is on record as 18 Ru. For 5mer-828 (RFCWR), the Binding affinity (5mer Bottom sequence) was 27 Ru. Still for that read-out and setting: the value for 5mer-829 (KCWHR) was 26 Ru. On the same count and under the same terms, the value for 5mer-830 (RIDGK) was 25 Ru; that for 5mer-831 (RAAGK) was 24 Ru; that for 5mer-832 (RMHER) was 18 Ru. For 5mer-833 (KATAK), the Binding affinity (5mer Bottom sequence) was determined as 33 Ru. 5mer-834 (RMNIK): the Binding affinity (5mer Bottom sequence) is 15 Ru. For 5mer-835 (RFMMR), the Binding affinity (5mer Bottom sequence) came out at 14 Ru. The same measure, in the same setting: the value for 5mer-836 (REWNR) was 15 Ru.

Take 5mer-837 (RPMDR): under “5mer Bottom sequence”, the Binding affinity turned out to be 28 Ru.

As to 5mer-838 (RHSMK), under “5mer Bottom sequence”, the Binding affinity stood at 13 Ru. Regarding 5mer-839 (RHHDK), the Binding affinity (5mer Bottom sequence) was 26 Ru. With 5mer-840 (KDTAR), the Binding affinity (5mer Bottom sequence) is 11 Ru. For the substance 5mer-841 (KNEMR), for the setting “5mer Bottom sequence”, the Binding affinity is reported as 22 Ru. On the same count and under the same terms, the result for 5mer-842 (RHNVK) reads 20 Ru. On the same count and under the same terms, the result for 5mer-843 (KTTPK) reads 17 Ru. As to 5mer-844 (KTDPR), the Binding affinity (5mer Bottom sequence) was determined as 32 Ru. For 5mer-845 (RYEDR), the Binding affinity (5mer Bottom sequence) turned out to be 15 Ru. As for 5mer-846 (RPDWR), for the setting “5mer Bottom sequence”, the Binding affinity came to 32 Ru. Take 5mer-847 (KAPEK): the Binding affinity (5mer Bottom sequence) turned out to be 28 Ru. As to 5mer-848 (RYMVK), the Binding affinity (5mer Bottom sequence) worked out at 12 Ru. The same measure, in the same setting: the value for 5mer-849 (KTWMK) was 15 Ru; that for 5mer-850 (KYDIR) was 13 Ru; that for 5mer-851 (KMCWK) was 19 Ru. Still for that read-out and setting: the result for 5mer-852 (KDSMK) reads 22 Ru; that for 5mer-853 (RYHIK), 13 Ru. On to 5mer-854 (RNTER), for which the Binding affinity (5mer Bottom sequence) was found to be 21 Ru. On the same count and under the same terms, the value for 5mer-855 (RFMKK) was 18 Ru; that for 5mer-856 (KPPDR) was 23 Ru. Take 5mer-857 (KMENR): the Binding affinity (5mer Bottom sequence) was 23 Ru. The same measure, in the same setting: the result for 5mer-858 (RIMGR) reads 33 Ru; that for 5mer-859 (KHNAR), 26 Ru; that for 5mer-860 (RCHAK), 31 Ru. On the same count and under the same terms, the value for 5mer-861 (KTKIR) was 20 Ru; that for 5mer-862 (KKNAK) was 19 Ru. Turning to 5mer-863 (REANR), the Binding affinity (5mer Bottom sequence) was 16 Ru.

As to 5mer-864 (KYHPR), for the setting “5mer Bottom sequence”, the Binding affinity was 25 Ru. The same measure, in the same setting: the value for 5mer-865 (RMMER) was 21 Ru; that for 5mer-866 (RINWR) was 11 Ru. 5mer-867 (KDSWK): the Binding affinity (5mer Bottom sequence) is 14 Ru. Consider 5mer-868 (KMHFK), for which, for the setting “5mer Bottom sequence”, the Binding affinity was determined as 18 Ru. 5mer-869 (KKHPK): for the setting “5mer Bottom sequence”, the Binding affinity is reported as 31 Ru. The same measure, in the same setting: the value for 5mer-870 (RCKVK) was 25 Ru; that for 5mer-871 (RHSHR) was 21 Ru. On to 5mer-872 (RKKWK), for which the Binding affinity (5mer Bottom sequence) is listed as 29 Ru. With 5mer-873 (RYNFR), the Binding affinity (5mer Bottom sequence) is 32 Ru. For the substance 5mer-874 (RIHMR), the Binding affinity (5mer Bottom sequence) stood at 27 Ru.

As to 5mer-875 (KHCNK), the Binding affinity (5mer Bottom sequence) is given as 33 Ru. Same read-out and setting: the value for 5mer-876 (KETAR) was 16 Ru; that for 5mer-877 (RFSMR) was 17 Ru; that for 5mer-878 (KHTER) was 24 Ru. As to 5mer-879 (KDCMK), under “5mer Bottom sequence”, the Binding affinity was found to be 13 Ru. 5mer-880 (RCDKK): where the note is “5mer Bottom sequence”, the Binding affinity stood at 17 Ru. With 5mer-881 (RNDAK), the Binding affinity (5mer Bottom sequence) turned out to be 31 Ru. Still for that read-out and setting: the result for 5mer-882 (REEGR) reads 18 Ru; that for 5mer-883 (KMSAK), 16 Ru.

5mer-884 (KIWEK): for the setting “5mer Bottom sequence”, the Binding affinity is on record as 28 Ru.

As to 5mer-885 (RHCNR), where the note is “5mer Bottom sequence”, the Binding affinity was determined as 19 Ru.

Regarding 5mer-886 (RMMFR), the Binding affinity (5mer Bottom sequence) amounted to 21 Ru. In the case of 5mer-887 (KTPVR), where the note is “5mer Bottom sequence”, the Binding affinity worked out at 30 Ru.

As to 5mer-888 (KKCIR), under “5mer Bottom sequence”, the Binding affinity came to 31 Ru.

For 5mer-889 (KTPGR), under “5mer Bottom sequence”, the Binding affinity is listed as 25 Ru.

Turning to 5mer-890 (KKHFK), under “5mer Bottom sequence”, the Binding affinity amounted to 33 Ru. Regarding 5mer-891 (RKKMK), the Binding affinity (5mer Bottom sequence) came to 24 Ru. Same read-out and setting: the value for 5mer-892 (RKPMR) was 29 Ru; that for 5mer-893 (RIKIK) was 18 Ru; that for 5mer-894 (KMSPR) was 18 Ru.
